# Starred links: 1 amine or outer side, 2 acyl side, 3 side chain; linkers in the order of their positions; H or OH if unused. Non-standard residues stand in square brackets, D forms with d. Groups on a side chain read outwards from the residue. No end group written: not given here. *: point of attachment. β‑dimethylGln = β-dimethylglutamine, CC(C)(CC(N)=O)[C@H](N[*:1])C(=O)[*:2]; C20 diacid = O=C(O)CCCCCCCCCCCCCCCCCCC(=O)*; C18 diacid = O=C(O)CCCCCCCCCCCCCCCCC(=O)*; γGlu = O=C(O)[C@H](CCC(=O)[*:2])N[*:1]; αMeF = C[C@](N)(Cc1ccccc1)C(=O)O; AEEA = NCCOCCOCC(=O)O; Aib = CC(C)(N)C(=O)O
# Key:
# [1] = target: human GLP-1 receptor (human, UniProt P43220); assay: cell-based or functional assay
# [2] = target: human glucagon receptor (human, UniProt P47871); assay: cell-based or functional assay
Binder,hGLP-1R EC50 (pM) [1] [pM],hGluc-R EC50 (pM) [2] [pM]
HS[β‑dimethylGln]GS[αMeF]TSDVSK[αMeF]LDSRAAK([AEEA-AEEA-γGlu-C18 diacid])D[αMeF]VQ[Aib]IANT-NH2 (N-terminus assumed; SMILES CC[C@H](C)[C@H](NC(=O)C(C)(C)NC(=O)[C@H](CCC(N)=O)NC(=O)[C@@H](NC(=O)[C@](C)(Cc1ccccc1)NC(=O)[C@H](CC(=O)O)NC(=O)[C@H](CCCCNC(=O)COCCOCCNC(=O)COCCOCCNC(=O)CC[C@H](NC(=O)CCCCCCCCCCCCCCCCC(=O)O)C(=O)O)NC(=O)[C@H](C)NC(=O)[C@H](C)NC(=O)[C@H](CCCNC(=N)N)NC(=O)[C@H](CO)NC(=O)[C@H](CC(=O)O)NC(=O)[C@H](CC(C)C)NC(=O)[C@](C)(Cc1ccccc1)NC(=O)[C@H](CCCCN)NC(=O)[C@H](CO)NC(=O)[C@@H](NC(=O)[C@H](CC(=O)O)NC(=O)[C@H](CO)NC(=O)[C@@H](NC(=O)[C@](C)(Cc1ccccc1)NC(=O)[C@H](CO)NC(=O)CNC(=O)[C@@H](NC(=O)[C@H](CO)NC(=O)[C@@H](N)Cc1c[nH]cn1)C(C)(C)CC(N)=O)[C@@H](C)O)C(C)C)C(C)C)C(=O)N[C@@H](C)C(=O)N[C@@H](CC(N)=O)C(=O)N[C@H](C(N)=O)[C@@H](C)O) [Peptide 324],1330,1930
H[Aib]HGS[αMeF]TSDVSK[αMeF]LDSRAAK([AEEA-AEEA-γGlu-γGlu-C20 diacid])D[αMeF]VQ[Aib]IANT-NH2 (N-terminus assumed; SMILES CC[C@H](C)[C@H](NC(=O)C(C)(C)NC(=O)[C@H](CCC(N)=O)NC(=O)[C@@H](NC(=O)[C@](C)(Cc1ccccc1)NC(=O)[C@H](CC(=O)O)NC(=O)[C@H](CCCCNC(=O)COCCOCCNC(=O)COCCOCCNC(=O)CC[C@H](NC(=O)CC[C@H](NC(=O)CCCCCCCCCCCCCCCCCCC(=O)O)C(=O)O)C(=O)O)NC(=O)[C@H](C)NC(=O)[C@H](C)NC(=O)[C@H](CCCNC(=N)N)NC(=O)[C@H](CO)NC(=O)[C@H](CC(=O)O)NC(=O)[C@H](CC(C)C)NC(=O)[C@](C)(Cc1ccccc1)NC(=O)[C@H](CCCCN)NC(=O)[C@H](CO)NC(=O)[C@@H](NC(=O)[C@H](CC(=O)O)NC(=O)[C@H](CO)NC(=O)[C@@H](NC(=O)[C@](C)(Cc1ccccc1)NC(=O)[C@H](CO)NC(=O)CNC(=O)[C@H](Cc1c[nH]cn1)NC(=O)C(C)(C)NC(=O)[C@@H](N)Cc1c[nH]cn1)[C@@H](C)O)C(C)C)C(C)C)C(=O)N[C@@H](C)C(=O)N[C@@H](CC(N)=O)C(=O)N[C@H](C(N)=O)[C@@H](C)O) [Peptide 305],211,155
H[Aib]QGTFTSDVSK[αMeF]LDSRAAK([AEEA-AEEA-γGlu-C18 diacid])DFVQ[Aib]LVAT-NH2 (not fully specified) [Peptide 315],18.1,5850
H[Aib]QGS[αMeF]TSDVSK[αMeF]LDSRAAKD[αMeF]VQ[Aib]IANT-NH2 (not fully specified (residue 20)) [Peptide 322],68.3,> 24700
H[Aib]QGTFTSDVSK[αMeF]LDSRAAK([AEEA-AEEA-γGlu-C18 diacid])DFVQWIANT-NH2 (not fully specified) [Peptide 318],55.2,12000
H[Aib]QGT[αMeF]TSDVSK[αMeF]LDSRAAK([AEEA-AEEA-γGlu-C18 diacid])D[αMeF]VQ[Aib]IANT-NH2 (not fully specified) [Peptide 321],22.6,4400

# From patent US12630600B2 (MEDIMMUNE LIMITED, priority 2022, dated 2026)
